Measured values from publication PMC4791394.

Molecular target: taxol-stabilized microtubules
Assay: co-sedimentation; normalized COS7 lysates in PEM buffer incubated with taxol-stabilized microtubules with 2.5 mM AMP-PNP, RT 30 min; 100,000 x g 40 min through a taxol-supplemented cushion; supernatant and pellet blotted for KIF5 and tubulin

A percent co-purified with microtubules of 100% was found for “KIF5C(1-560)^S176A-3xmCit (from UniProt P28738 1-560) (domain or fragment)” in this work.
A percent co-purified with microtubules of 60% was found for “KIF5C(1-560)^S176D-3xmCit (from UniProt P28738 1-560) (domain or fragment)” in this work.
A percent co-purified with microtubules of 100% was found for “KIF5C(1-560)^WT-3xmCit (from UniProt P28738 1-560) (domain or fragment)” in this work.
